T1: Abp1 SH3 (ABP1_YEAST), P15891
T1 chain: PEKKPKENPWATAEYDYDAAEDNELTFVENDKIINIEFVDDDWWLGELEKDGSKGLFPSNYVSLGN

B1: YOL156W 41-54 (peptide)
chain: LDANEPPIDLPQKP
B2: YOR023C 257-270 (peptide)
chain: LDEQPGFQILPFKP
B3: YBR236C 423-435 (peptide)
chain: KVKQYIEPESVKP
B4: YGL131C 1252-1264 (peptide)
chain: LEGNELYPLSYKP
B5: YGL207W 558-570 (peptide)
chain: KSQTIILPIYGRP
B6: YOR365C 124-137 (peptide)
chain: LSGIQDNLLSPLKP
B7: YJL095W 316-329 (peptide)
chain: KSPSNIKLSIPARP
B8: YLL051C 566-579 (peptide)
chain: LDHAIKLSRNPDKP
B9: YMR044W 279-292 (peptide)
chain: KTKAKKEKPKPPKP
B10: YGR197C 50-62 (peptide)
chain: KSLEDYRPPDEKP
B11: YNL284C 230-242 (peptide)
chain: LEKRGRVPLQARP
B12: YGR193C 231-243 (peptide)
chain: LDLSNIKPIQLKP
B13: YHR006W 264-276 (peptide)
chain: KSRHFTYPEGVKP
B14: YLR429W 427-439 (peptide)
chain: LEEKKEQPKVEKP
B15: YOL066C 148-160 (peptide)
chain: KVHRHEPPVTSKP
B16: YPL004C 227-239 (peptide)
chain: LDDSPVTPGEARP
B17: YJL095W 372-385 (peptide)
chain: LFGSGIGEEAPTKP
B18: YGR084C 83-96 (peptide)
chain: KTREPLQPRPPVKP
B19: YBR136W 2029-2042 (peptide)
chain: LESNSMRGYQPFRP
B20: YOL087C 650-662 (peptide)
chain: LELVQPLPASKKP
B21: YOL021C 286-298 (peptide)
chain: LEGSVSLPRFSKP
B22: YPL167C 291-304 (peptide)
chain: LEKLGDISDIPVKP
B23: YGR109W-B 563-576 (peptide)
chain: KYREIIRNDLPPRP
B24: YBR003W 113-125 (peptide)
chain: KSDVPEDPIYSKP
B25: YLL015W 4-16 (peptide)
chain: LEVVDGSPYGYRP
B26: YGL202W 197-209 (peptide)
chain: KVMENWTPGAPKP
B27: YDR392W 289-302 (peptide)
chain: LFDGPENVINPLKP
B28: YPL029W 708-720 (peptide)
chain: LDRLKKNPYAHKP
B29: YFL004W 802-814 (peptide)
chain: LEVPERIPEVLRP
B30: YGR230W 120-133 (peptide)
chain: LEFVRGKQNIPRKP
B31: YLR054C 309-322 (peptide)
chain: LGIDKRSSTKPTKP
B32: YMR168C 296-309 (peptide)
chain: LSGSDYLQSGPRKP
B33: YDL058W 339-351 (peptide)
chain: LAFFHNIPKKVRP
B34: YLR085C 335-347 (peptide)
chain: LESLSMLPEIVRP
B35: YLR428C 53-65 (peptide)
chain: LEARTNFPLILRP
B36: YDR409W 855-868 (peptide)
chain: KSRLIVNPFIPRRP
B37: YHR184W 123-135 (peptide)
chain: KSELPKSPYRQKP
B38: YHR204W 395-408 (peptide)
chain: LDNILPLEWYPLRP
B39: YER093C 582-594 (peptide)
chain: LDVLKIKPLPYKP
B40: YDL033C 211-223 (peptide)
chain: LAKYAGLPTAEKP
B41: YLR427W 248-260 (peptide)
chain: LSGSIIGPKRVKP
B42: YGR232W 85-98 (peptide)
chain: LEVVKSLYDRPLKP
B43: YIR007W 614-626 (peptide)
chain: KSGSSQPPSFIKP
B44: YGR086C 227-239 (peptide)
chain: LDDSPVTPGETRP
B45: YAL028W 269-282 (peptide)
chain: LESSPKKHVSPSRP
B46: YMR184W 66-78 (peptide)
chain: KTATTPPPVLRRP
B47: YIL030C 763-775 (peptide)
chain: KSNLLSVPEAYKP
B48: YML002W 638-650 (peptide)
chain: KSYRKAFPNMVKP
B49: YHR077C 993-1005 (peptide)
chain: KVVASKIPVISKP
B50: YJL219W 41-54 (peptide)
chain: LDATEPPIDLPQKP
B51: YKR003W 302-315 (peptide)
chain: KVFLDTHKESPLRP
B52: YBR136W 497-510 (peptide)
chain: KTGNPFVRINPNRP
B53: YJR066W 2073-2086 (peptide)
chain: LELAVPGTYFPGKP
B54: YPR084W 202-215 (peptide)
chain: KSILHGLADEPRRP
B55: YDR285W 822-834 (peptide)
chain: LELTNPSPIQIKP
B56: YGL251C 1061-1073 (peptide)
chain: KYIKEKGPSSIKP
B57: YIL171W 41-54 (peptide)
chain: LDATEAPIDLPQKP
B58: YGR084C 56-68 (peptide)
chain: KTDAKLKPFIYRP
B59: YBR056W 390-403 (peptide)
chain: LAPMMQKGNLPKRP

Biological target: T1, Abp1 SH3 (ABP1_YEAST), P15891
Experiment: SPOT array

normalised SPOT signal, Boehringer light units (BLU); mean over the file's lines of this peptide	Binder
72.3	B1
160	B2
100	B3
65.6	B4
84.4	B5
110	B6
107	B7
97.5	B8
119	B9
161	B10
1240	B11
176	B12
55.9	B13
86.1	B14
69.6	B15
57.3	B16
118	B17
706	B18
250	B19
118	B20

normalised SPOT signal, Boehringer light units (BLU); mean over the file's lines of this peptide	Binder
76.1	B21
138	B22
86	B23
19.8	B24
0	B25
106	B26
35	B27
577	B28
14.9	B29
800	B30
188	B31
75.2	B32
221	B33
118	B34
84.3	B35
360	B36
205	B37
84.7	B38
2070	B39
55.9	B40

normalised SPOT signal, Boehringer light units (BLU); mean over the file's lines of this peptide	Binder
466	B41
63.6	B42
69.8	B43
64.5	B44
184	B45
9110	B46
200	B47
217	B48
126	B49
125	B50
73.1	B51
371	B52
40	B53
98.4	B54
82.9	B55
104	B56
77.8	B57
2160	B58
3410	B59
